Patent US11104735B2, “Inhibition of cytokine-induced SH2 protein in NK cells” (The Walter and Eliza Hall Institute of Medical Research, priority 2015, dated 2021)

How the values were obtained:
[1] = target: JAK1 (Homo sapiens, UniProt P23458); test: In vitro kinase inhibition assay, JAK1 kinase domain (JH1) with STAT5b substrate peptide; format: biochemical
Experimental: Protein kinase assays, including high throughput kinase assays are known in the art as described in, e.g., in Babon et al. (2013) and Von Ahsen et al. (2005). In one exemplary embodiment 130 μM STAT5b peptide (SEQ ID NO:18 […]) is incubated with 5 nM human JAK1 (see SEQ ID NO:11 for corresponding amino acid sequence) at 25° C. for 30-60 min in 20 mM Tris pH 8.0, 100 mM NaCl, 5 mM 2-mercaptoethanol, 0.2 mg ml^−1 bovine serum albumin, 2 mM MgCl2, 100 μM ATP and 1 μCi γ-[^32P]ATP. […] After incubation, the reaction is spotted onto P81 phosphocellulose paper and quenched in 5% H3PO4. The paper is then washed (4×200 ml, 15 min) with 5% H3PO4 and exposed to a phosphorimager plate. Quantitation is performed using phosphorimager software and IC50 curves are then calculated based on integrated pixel counts.
Kinase inhibition assays were performed essentially as described (Babon et al., 2012). Briefly, 130 μM STAT5b peptide (SEQ ID NO:18 […]) was incubated with 5 nM JAK1 at 25° C. for 30-60 min in 20 mM Tris pH 8.0, 100 mM NaCl, 5 mM 2-mercaptoethanol, 0.2 mg ml^−1 bovine serum albumin, 2 mM MgCl2, 100 μM ATP and 1 mCi γ-[32P]ATP. […] After incubation, the reaction was spotted onto P81 phosphocellulose paper and quenched in 5% H3PO4. The paper was washed (4×200 ml, 15 min) with 5% H3PO4 and exposed to a phosphorimager plate (Fuji). Quantitation was performed using Fuji software and IC50 curves calculated using Graphpad Prism.

[2] = target: T1, JAK1 phosphopeptide (JAK1-Y1034) (Homo sapiens, UniProt P23458); test: ITC, CIS constructs binding to JAK1 phosphopeptide; conditions: CIS constructs with elongins B and C
T1 construct: purchased Genscript
Experimental: 300 μM phosphopeptides were titrated into a 30 μM solution of the GST-CIS-SH2-BC ternary complex. ITC titration curves are shown. The titration curves all fitted well to a single-site model.
Isothermal calorimetric titrations were performed with a Microcal ITC200 (GE Healthcare). Phosphopeptides were obtained from Genscript. An optimised GST-CIS protein construct was prepared in which the internal PEST region ([…]) was deleted. The resulting ternary GST-CIS-SH2-SB complexes were dialysed against buffer (20 mM Tris pH 8.0, 100 mM NaCl, 2 mM 2-mercaptoethanol). Experiments were performed at 298 K unless stated otherwise. Typically, 12×3.15 μl injections of 300 μM phosphopeptides were titrated into a 30 μM solution of the GST-CIS-SH2-SB ternary complex. The heat of dilution of GST-CIS-SH2-BC was subtracted from the raw data of the binding experiment. Data were analysed using the evaluation software, Microcal Origin version 5.0. The binding curve fitted a single-site binding mode and all KD values were determined from duplicate experiments.

Chain of JAK1 (P23458 875-1153 limits assumed): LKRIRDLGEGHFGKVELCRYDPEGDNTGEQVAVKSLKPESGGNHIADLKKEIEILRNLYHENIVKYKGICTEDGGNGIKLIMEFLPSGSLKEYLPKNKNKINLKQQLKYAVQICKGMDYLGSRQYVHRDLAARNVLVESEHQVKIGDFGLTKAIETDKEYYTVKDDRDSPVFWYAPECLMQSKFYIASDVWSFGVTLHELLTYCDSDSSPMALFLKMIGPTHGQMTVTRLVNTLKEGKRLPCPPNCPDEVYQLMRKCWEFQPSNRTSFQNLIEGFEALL

B1: CIS-SH2-BC complex: recombinant trimeric complex of human GST-CIS construct (hCIS-SH2; residues 66-258) and Elongins B and C (protein)
chain: MVLCVQGSCPLLAVEQIGRRPLWAQSLELPGPAMQPLPTGAFPEEVTEETPVQAENEPKVLDPEGDLLCIAKTFSYLRESGWYWGSITASEARQHLQKMPEGTFLVRDSTHPSYLFTLSVKTTRGPTNVRIEYADSSFRLDSNCLSRPRILAFPDVVSLVQHYVASCAADTRSDSPDPAPTPALPMSKQDAPSDSVLPIPVATAVHLKLVQPFVRRSSARSLQHLCRLVINRLVADVDCLPLPRRMADYLRQYPFQL
modifications: left off: small tags and cut ends
notes: recombinant trimeric complex of human GST-CIS construct (hCIS-SH2; residues 66-258) and Elongins B and C
Question: Which results are given for B1?
Answer: IC50 ([1]; JAK1 JH1, in vitro kinase reaction, read-out: IC50, inhibition of JAK1 phosphorylation of a substrate peptide): 120 ± 20 nM; Inhibition of JAK1 relative to inhibition of JAK2, JAK3 or TYK2 ([1]; JH1 domains of all four JAKs): ≥ 20 fold; Lower efficiency of JAK1 inhibition than SOCS1 ([1]; compared with SOCS1): 100 fold

B2: CIS-ΔN34: human CIS lacking the N-terminal 34 residues, in complex with elongins B and C (protein, UniProt Q9NSE2 35-258, looked up, fragment)
chain: QPLPAGAFLEEVAEGTPAQTESEPKVLDPEEDLLCIAKTFSYLRESGWYWGSITASEARQHLQKMPEGTFLVRDSTHPSYLFTLSVKTTRGPTNVRIEYADSSFRLDSNCLSRPRILAFPDVVSLVQHYVASCTADTRSDSPDPAPTPALPMPKEDAPSDPALPAPPPATAVHLKLVQPFVRRSSARSLQHLCRLVINRLVADVDCLPLPRRMADYLRQYPFQL
modifications: complex with elongins B and C
Question: For B2, which “Binding affinity (ITC) to JAK1 phosphopeptide” value [2] is on record?
Answer: Its value is “greatest reduction in binding”.
